B1: HA-tagged Cbln1 (wild type) (ligand, mouse, UniProt Q9R171 22-193, looked up)
chain: QNETEPIVLEGKCLVVCDSNPTSDPTGTALGISVRSGSAKVAFSAIRSTNHEPSEMSNRTMIIYFDQVLVNIGNNFDSERSTFIAPRKGIYSFNFHVVKVYNRQTIQVSLMLNGWPVISAFAGDQDVTREAASNGVLIQMEKGDRAYLKLERGNLMGGWKYSTFSGFLVFPL
modifications: N-linked glycans at N23 and N79; sialylated
B2: HA-tagged Cbln1 N23Q (ligand, mouse, UniProt Q9R171 22-193, looked up)
chain: QQETEPIVLEGKCLVVCDSNPTSDPTGTALGISVRSGSAKVAFSAIRSTNHEPSEMSNRTMIIYFDQVLVNIGNNFDSERSTFIAPRKGIYSFNFHVVKVYNRQTIQVSLMLNGWPVISAFAGDQDVTREAASNGVLIQMEKGDRAYLKLERGNLMGGWKYSTFSGFLVFPL
modifications: N-linked glycan at N79 only (monoglycosylated)
B3: HA-tagged Cbln1 N79Q (ligand, mouse, UniProt Q9R171 22-193, looked up)
chain: QNETEPIVLEGKCLVVCDSNPTSDPTGTALGISVRSGSAKVAFSAIRSTNHEPSEMSQRTMIIYFDQVLVNIGNNFDSERSTFIAPRKGIYSFNFHVVKVYNRQTIQVSLMLNGWPVISAFAGDQDVTREAASNGVLIQMEKGDRAYLKLERGNLMGGWKYSTFSGFLVFPL
modifications: N-linked glycan at N23 only (monoglycosylated)
B4: HA-tagged Cbln2 (wild type) (ligand, mouse, UniProt Q8BGU2 52-224, looked up)
chain: QNDTEPIVLEGKCLVVCDSSPSGDGAVTSSLGISVRSGSAKVAFSATRSTNHEPSEMSNRTMTIYFDQVLVNIGNHFDLASSIFVAPRKGIYSFSFHVVKVYNRQTIQVSLMQNGYPVISAFAGDQDVTREAASNGVLLLMEREDKVHLKLERGNLMGGWKYSTFSGFLVFPL
modifications: N-linked glycans at N53 and N110
B5: HA-tagged Cbln2 N110Q (ligand, mouse, UniProt Q8BGU2 52-224, looked up)
chain: QNDTEPIVLEGKCLVVCDSSPSGDGAVTSSLGISVRSGSAKVAFSATRSTNHEPSEMSQRTMTIYFDQVLVNIGNHFDLASSIFVAPRKGIYSFSFHVVKVYNRQTIQVSLMQNGYPVISAFAGDQDVTREAASNGVLLLMEREDKVHLKLERGNLMGGWKYSTFSGFLVFPL
modifications: N-linked glycan at N53 only (monoglycosylated)
B6: HA-tagged Cbln2 N53Q (ligand, mouse, UniProt Q8BGU2 52-224, looked up)
chain: QQDTEPIVLEGKCLVVCDSSPSGDGAVTSSLGISVRSGSAKVAFSATRSTNHEPSEMSNRTMTIYFDQVLVNIGNHFDLASSIFVAPRKGIYSFSFHVVKVYNRQTIQVSLMQNGYPVISAFAGDQDVTREAASNGVLLLMEREDKVHLKLERGNLMGGWKYSTFSGFLVFPL
modifications: N-linked glycan at N110 only (monoglycosylated)
B7: HA-tagged Cbln4 (wild type) (ligand, mouse, UniProt Q8BME9 25-198, looked up)
chain: QNDTEPIVLEGKCLVVCDSNPATDSKGSSSSPLGISVRAANSKVAFSAVRSTNHEPSEMSNKTRIIYFDQILVNVGNFFTLESVFVAPRKGIYSFSFHVIKVYQSQTIQVNLMLNGKPVISAFAGDKDVTREAATNGVLLYLDKEDKVYLKLEKGNLLGGWQYSTFSGFLVFPL
modifications: N-linked glycans at N26 and N85; sialylated
B8: HA-tagged Cbln4 N85Q (ligand, mouse, UniProt Q8BME9 25-198, looked up)
chain: QNDTEPIVLEGKCLVVCDSNPATDSKGSSSSPLGISVRAANSKVAFSAVRSTNHEPSEMSQKTRIIYFDQILVNVGNFFTLESVFVAPRKGIYSFSFHVIKVYQSQTIQVNLMLNGKPVISAFAGDKDVTREAATNGVLLYLDKEDKVYLKLEKGNLLGGWQYSTFSGFLVFPL
modifications: N-linked glycan at N26 only (monoglycosylated)

This data set deals with the molecule itself. Briefly: native gel or EMSA.
Regarding B1, the “stoichiometry N” value came out at 6.

With B2, the “stoichiometry N” value was 6. Then B3, with 6; and B4, with 6; and B5, with 6. To B6 belongs 6.

Consider B7, for which the “stoichiometry N” value was determined as 6.

For B8, the “stoichiometry N” value came to 6.

As usually defined, the stoichiometry N is the number of molecules, sites or subunits per partner or assembly.

(Values after article PMC6026032 (Brain research, 2018).)
